Test results reported in patent publication US20190309059A1 (SHANGHAI PHARMAEXPLORER, published 2019).
“And” between values parts separate entries of the source, which are not always exact repeats. Equal values may be shown once.

Assays:
[1] = target: his-labeled human IL-13 (immunogen A) (human) (UniProt P35225); experiment: cell-based or functional assay
[2] = target: cynomolgus IL-13 (purchased from sino biological) (cynomolgus) (UniProt Q0PW92); experiment: ELISA, cynomolgus IL-13; antibody at 0.53 nM
Chain of cynomolgus IL-13 (purchased from sino biological) (cynomolgus) (Q0PW92 entry or part of it): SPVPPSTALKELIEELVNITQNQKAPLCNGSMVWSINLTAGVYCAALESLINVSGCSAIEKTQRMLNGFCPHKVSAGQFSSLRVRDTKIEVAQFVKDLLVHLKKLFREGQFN

[3] = target: cynomolgus IL-13 (purchased from sino biological) (cynomolgus) (UniProt Q0PW92); experiment: ELISA, cynomolgus IL-13; antibody at 2.67 nM
[4] = target: cynomolgus IL-13 (purchased from sino biological) (cynomolgus) (UniProt Q0PW92); experiment: ELISA, cynomolgus IL-13; antibody at 0.004 nM
[5] = target: cynomolgus IL-13 (purchased from sino biological) (cynomolgus) (UniProt Q0PW92); experiment: ELISA, cynomolgus IL-13; antibody at 0.021 nM
[6] = target: cynomolgus IL-13 (purchased from sino biological) (cynomolgus) (UniProt Q0PW92); experiment: ELISA, cynomolgus IL-13; antibody at 13.33 nM
[7] = target: his-labeled human IL-13 (immunogen A) (human) (UniProt P35225); experiment: ELISA, biotin-immunogen A; antibody at 0.53 nM
[8] = target: his-labeled human IL-13 (immunogen A) (human) (UniProt P35225); experiment: ELISA, biotin-immunogen A; antibody at 2.67 nM
[9] = target: his-labeled human IL-13R130Q variant (human) (UniProt P35225); experiment: ELISA, IL-13R130Q variant; antibody at 0.53 nM
Chain of his-labeled human IL-13R130Q variant (human) (P35225 other isoform, or with tags, fused parts or gaps mutant): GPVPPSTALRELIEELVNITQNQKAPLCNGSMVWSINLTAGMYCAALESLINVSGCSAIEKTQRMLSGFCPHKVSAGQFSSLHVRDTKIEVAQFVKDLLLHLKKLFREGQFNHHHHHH

[10] = target: his-labeled human IL-13R130Q variant (human) (UniProt P35225); experiment: ELISA, IL-13R130Q variant; antibody at 2.67 nM
[11] = target: his-labeled human IL-13 (immunogen A) (human) (UniProt P35225); experiment: ELISA, biotin-immunogen A; antibody at 0.000 nM
[12] = target: his-labeled human IL-13 (immunogen A) (human) (UniProt P35225); experiment: FACS blocking, biotin-IL-13 on IL-13Ra2 HEK293 cells; antibody at 0.01 nM
[13] = target: his-labeled human IL-13 (immunogen A) (human) (UniProt P35225); experiment: FACS blocking, biotin-IL-13 on IL-13Ra2 HEK293 cells; antibody at 0.05 nM
[14] = target: his-labeled human IL-13 (immunogen A) (human) (UniProt P35225); experiment: FACS blocking, biotin-IL-13 on IL-13Ra2 HEK293 cells; antibody at 0.27 nM
[15] = target: his-labeled human IL-13 (immunogen A) (human) (UniProt P35225); experiment: FACS blocking, biotin-IL-13 on IL-13Ra2 HEK293 cells; antibody at 1.33 nM
[16] = target: his-labeled human IL-13 (immunogen A) (human) (UniProt P35225); experiment: FACS blocking, biotin-IL-13 on IL-13Ra2 HEK293 cells; antibody at 6.67 nM
[17] = target: his-labeled human IL-13 (immunogen A) (human) (UniProt P35225); experiment: FACS blocking, biotin-IL-13 on IL-13Ra2 HEK293 cells; antibody at 0.002 nM
[18] = target: his-labeled human IL-13 (immunogen A) (human) (UniProt P35225); experiment: FACS blocking, biotin-IL-13 on IL-13Ra2 HEK293 cells; antibody at 33.33 nM
[19] = target: his-labeled human IL-13 (immunogen A) (human) (UniProt P35225); experiment: FACS blocking, biotin-IL-13 on IL-13Ra2 HEK293 cells; antibody at 166.67 nM
[20] = target: his-labeled human IL-13 (immunogen A) (human) (UniProt P35225); experiment: FACS blocking, biotin-IL-13 on IL-13Ra1/IL-4Ra HEK293 cells; antibody at 0.01 nM
[21] = target: his-labeled human IL-13 (immunogen A) (human) (UniProt P35225); experiment: FACS blocking, biotin-IL-13 on IL-13Ra1/IL-4Ra HEK293 cells; antibody at 0.05 nM
[22] = target: his-labeled human IL-13 (immunogen A) (human) (UniProt P35225); experiment: FACS blocking, biotin-IL-13 on IL-13Ra1/IL-4Ra HEK293 cells; antibody at 0.27 nM
[23] = target: his-labeled human IL-13 (immunogen A) (human) (UniProt P35225); experiment: FACS blocking, biotin-IL-13 on IL-13Ra1/IL-4Ra HEK293 cells; antibody at 1.33 nM
[24] = target: his-labeled human IL-13 (immunogen A) (human) (UniProt P35225); experiment: FACS blocking, biotin-IL-13 on IL-13Ra1/IL-4Ra HEK293 cells; antibody at 6.67 nM
[25] = target: his-labeled human IL-13 (immunogen A) (human) (UniProt P35225); experiment: FACS blocking, biotin-IL-13 on IL-13Ra1/IL-4Ra HEK293 cells; antibody at 0.002 nM
[26] = target: his-labeled human IL-13 (immunogen A) (human) (UniProt P35225); experiment: FACS blocking, biotin-IL-13 on IL-13Ra1/IL-4Ra HEK293 cells; antibody at 33.33 nM
[27] = target: his-labeled human IL-13 (immunogen A) (human) (UniProt P35225); experiment: FACS blocking, biotin-IL-13 on IL-13Ra1/IL-4Ra HEK293 cells; antibody at 166.67 nM

## IgG control (mouse IgG) (antibody)
[1]
  Periostin (pg/mL), MRCS cells + IL-13 5 ng/mL; control antibody at 0.0002 nM: 6350 pg/mL
  Periostin (pg/mL), MRCS cells + IL-13 5 ng/mL; control antibody at 0.001 nM: 4760 pg/mL
  Periostin (pg/mL), MRCS cells + IL-13 5 ng/mL; control antibody at 0.004 nM: 4290 pg/mL
  Periostin (pg/mL), MRCS cells + IL-13 5 ng/mL; control antibody at 0.021 nM: 4010 pg/mL
  Periostin (pg/mL), MRCS cells + IL-13 5 ng/mL; control antibody at 0.11 nM: 3830 pg/mL
  Periostin (pg/mL), MRCS cells + IL-13 5 ng/mL; control antibody at 0.53 nM: 4920 pg/mL
  Periostin (pg/mL), MRCS cells + IL-13 5 ng/mL; control antibody at 2.67 nM: 5740 pg/mL
  Periostin (pg/mL), MRCS cells + IL-13 5 ng/mL; control antibody at 13.3 nM: 6240 pg/mL
  TARC (pg/mL), A549 cells + IL-13 5 ng/mL + TNFα; control antibody at 0.001 nM: 2010 pg/mL
  TARC (pg/mL), A549 cells + IL-13 5 ng/mL + TNFα; control antibody at 0.004 nM: 1720 pg/mL
  TARC (pg/mL), A549 cells + IL-13 5 ng/mL + TNFα; control antibody at 0.021 nM: 1740 pg/mL
  TARC (pg/mL), A549 cells + IL-13 5 ng/mL + TNFα; control antibody at 0.11 nM: 1650 pg/mL
  TARC (pg/mL), A549 cells + IL-13 5 ng/mL + TNFα; control antibody at 0.5 nM: 1640 pg/mL
  TARC (pg/mL), A549 cells + IL-13 5 ng/mL + TNFα; control antibody at 2.7 nM: 1720 pg/mL
  TARC (pg/mL), A549 cells + IL-13 5 ng/mL + TNFα; control antibody at 13.3 nM: 1800 pg/mL
  TARC (pg/mL), A549 cells + IL-13 5 ng/mL + TNFα; control antibody at 66.7 nM: 1870 pg/mL
  TARC (pg/mL), A549 cells + IL-13 + TNFα; control antibody at 0.001 nM: 3120 pg/mL
  TARC (pg/mL), A549 cells + IL-13 + TNFα; control antibody at 0.001 nM (part 2, with hP4 4H12): 2920 pg/mL
  TARC (pg/mL), A549 cells + IL-13 + TNFα; control antibody at 0.004 nM: 2980 pg/mL
  TARC (pg/mL), A549 cells + IL-13 + TNFα; control antibody at 0.004 nM (part 2, with hP4 4H12): 2560 pg/mL
  TARC (pg/mL), A549 cells + IL-13 + TNFα; control antibody at 0.021 nM: 3000 pg/mL
  TARC (pg/mL), A549 cells + IL-13 + TNFα; control antibody at 0.021 nM (part 2, with hP4 4H12): 2580 pg/mL
  TARC (pg/mL), A549 cells + IL-13 + TNFα; control antibody at 0.11 nM: 2780 pg/mL
  TARC (pg/mL), A549 cells + IL-13 + TNFα; control antibody at 0.11 nM (part 2, with hP4 4H12): 2570 pg/mL
  TARC (pg/mL), A549 cells + IL-13 + TNFα; control antibody at 0.5 nM (part 2, with hP4 4H12): 2580 pg/mL
  TARC (pg/mL), A549 cells + IL-13 + TNFα; control antibody at 0.53 nM: 2840 pg/mL
  TARC (pg/mL), A549 cells + IL-13 + TNFα; control antibody at 2.67 nM: 2720 pg/mL
  TARC (pg/mL), A549 cells + IL-13 + TNFα; control antibody at 2.7 nM (part 2, with hP4 4H12): 2790 pg/mL
  TARC (pg/mL), A549 cells + IL-13 + TNFα; control antibody at 13.3 nM: 2820 pg/mL
  TARC (pg/mL), A549 cells + IL-13 + TNFα; control antibody at 13.3 nM (part 2, with hP4 4H12): 2870 pg/mL
  TARC (pg/mL), A549 cells + IL-13 + TNFα; control antibody at 66.7 nM: 2700 pg/mL
  TARC (pg/mL), A549 cells + IL-13 + TNFα; control antibody at 66.7 nM (part 2, with hP4 4H12): 2920 pg/mL
  VCAM-1 fluorescence intensity, HUVEC + IL-13 0.5 ng/mL + TNFα; control antibody at 0.0002 nM: 347
  VCAM-1 fluorescence intensity, HUVEC + IL-13 0.5 ng/mL + TNFα; control antibody at 0.001 nM: 369
  VCAM-1 fluorescence intensity, HUVEC + IL-13 0.5 ng/mL + TNFα; control antibody at 0.004 nM: 373
  VCAM-1 fluorescence intensity, HUVEC + IL-13 0.5 ng/mL + TNFα; control antibody at 0.021 nM: 369
  VCAM-1 fluorescence intensity, HUVEC + IL-13 0.5 ng/mL + TNFα; control antibody at 0.11 nM: 340
  VCAM-1 fluorescence intensity, HUVEC + IL-13 0.5 ng/mL + TNFα; control antibody at 0.53 nM: 302
  VCAM-1 fluorescence intensity, HUVEC + IL-13 0.5 ng/mL + TNFα; control antibody at 2.67 nM: 354
  VCAM-1 fluorescence intensity, HUVEC + IL-13 0.5 ng/mL + TNFα; control antibody at 13.3 nM: 341
[2]
  OD450 nm: 0.09
[3]
  OD450 nm: 0.06
[4]
  OD450 nm: 0.07
[5]
  OD450 nm: 0.07
[6]
  OD450 nm: 0.21
[7]
  OD450 nm: 0.07 and 0.06
[8]
  OD450 nm: 0.08
[9]
  OD450 nm: 0.06
[10]
  OD450 nm: 0.06
[11]
  OD450 nm: 0.05
[12]
  mean fluorescence intensity: 83.2
[13]
  mean fluorescence intensity: 81.3
[14]
  mean fluorescence intensity: 78.9
[15]
  mean fluorescence intensity: 80.7
[16]
  mean fluorescence intensity: 77.2
[17]
  mean fluorescence intensity: 79.3
[18]
  mean fluorescence intensity: 82.7
[19]
  mean fluorescence intensity: 77
[20]
  mean fluorescence intensity: 72.4
[21]
  mean fluorescence intensity: 68.9
[22]
  mean fluorescence intensity: 67.9
[23]
  mean fluorescence intensity: 37.5
[24]
  mean fluorescence intensity: 27.7
[25]
  mean fluorescence intensity: 72
[26]
  mean fluorescence intensity: 22.1
[27]
  mean fluorescence intensity: 17.1
